Reference: PMC9352680, “A comprehensive thermodynamic model for RNA binding by the Saccharomyces cerevisiae Pumilio protein PUF4”

T1: PUF4 RNA-binding domain (Saccharomyces cerevisiae, UniProt P25339 537-888)
T1 sequence: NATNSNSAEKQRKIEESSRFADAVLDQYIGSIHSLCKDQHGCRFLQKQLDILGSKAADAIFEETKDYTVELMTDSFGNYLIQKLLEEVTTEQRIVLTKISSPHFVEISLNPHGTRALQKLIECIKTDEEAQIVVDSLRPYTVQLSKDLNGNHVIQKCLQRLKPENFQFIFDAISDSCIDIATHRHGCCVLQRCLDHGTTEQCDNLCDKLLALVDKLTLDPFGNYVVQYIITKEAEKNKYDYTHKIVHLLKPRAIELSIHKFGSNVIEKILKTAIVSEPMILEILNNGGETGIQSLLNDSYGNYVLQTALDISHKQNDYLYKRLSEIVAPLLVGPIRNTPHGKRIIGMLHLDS


The binders below were run against T1, PUF4 RNA-binding domain (assay: Mg; RNA-MaP; 20 mM Na-HEPES pH 7.4, 30 mM KOAc, 0.75 mM MgCl2, 0.1% Tween-20, 5% glycerol, 0.1 mg/mL BSA, 2 mM DTT; 25 C; 0.0125-409.6 nM protein). Conditions: tags: N-His6-TEV cleaved; C-SNAP kept, Cy3B-labelled; label: tethered on chip by stalled RNA polymerase.

Compared with UCUCUUCUUAUAUUAUUAAUUCUCUU (ssRNA) [Id_ii_S1_P5E.3_K5.2_C5.2_H5.2_A5.1_F5.1_T5.2_[T11A]_[A12T]], UCUCUUGCACACUUAUUAUUUCUCUU (ssRNA) [Id_ii_S1_P5E.4_K5.3_C5.2_[C-2G]_[T-1C]_H5.3_A5.1_F5.1_T5.2_[A12T]] is 3.1-fold higher in Kd: 460 nM for the first, 1420 nM for the second. The first binds more tightly here.

First: UCUCUUGCACACUUAUUAUAUCUCUU (ssRNA) [Id_ii_S1_P5E.4_K5.3_C5.2_[C-2G]_[T-1C]_H5.3_A5.1_F5.1_T5.2]
Second: UCUCUUUGUAUUACUCUCUCUU (ssRNA) [Ib_S1_P5E.1_K5.1_C5.1_H5.1_A5.1_F5.1_[T8C]_[A10C]_T5.1]
The Kd of the first is 5.8-fold higher: 766 nM for the first, 133 nM for the second.

Going from UCUCUUGCACACUUAUUACGUCUCUU (ssRNA) [Id_ii_S1_P5E.4_K5.3_C5.2_[C-2G]_[T-1C]_H5.3_A5.1_F5.1_T5.2_[T11C]_[A12G]] to UCUCUUCUUAUAUUAUUACUUCUCUU (ssRNA) [Id_ii_S1_P5E.3_K5.2_C5.2_H5.2_A5.1_F5.1_T5.2_[T11C]_[A12T]], the Kd falls from over 2300 nM to 439 nM. The second binds more tightly here.

Compared with UCUCUUUGUAUUAGUCUCUCUU (ssRNA) [Ib_S1_P5E.1_K5.1_C5.1_H5.1_A5.1_F5.1_[T8G]_[A10C]_T5.1], UCUCUUCUUAUAUUAUUAGUUCUCUU (ssRNA) [Id_ii_S1_P5E.3_K5.2_C5.2_H5.2_A5.1_F5.1_T5.2_[T11G]_[A12T]] is 6.3-fold lower in Kd: 518 nM for the first, 82.2 nM for the second.

First: UCUCUUGCACACUUAUUACCUCUCUU (ssRNA) [Id_ii_S1_P5E.4_K5.3_C5.2_[C-2G]_[T-1C]_H5.3_A5.1_F5.1_T5.2_[T11C]_[A12C]]
Second: UCUCUUCUUAUAUUAUUACCUCUCUU (ssRNA) [Id_ii_S1_P5E.3_K5.2_C5.2_H5.2_A5.1_F5.1_T5.2_[T11C]_[A12C]]
The Kd of the first is 2.3-fold higher: 1320 nM for the first, 571 nM for the second. The second binds more tightly here.

Compared with UCUCUUCUUAUAUUAUUAUCUCUCUU (ssRNA) [Id_ii_S1_P5E.3_K5.2_C5.2_H5.2_A5.1_F5.1_T5.2_[A12C]], UCUCUUCUUAUAUUAUUAUUUCUCUU (ssRNA) [Id_ii_S1_P5E.3_K5.2_C5.2_H5.2_A5.1_F5.1_T5.2_[A12T]] is 2.2-fold lower in Kd: 491 nM for the first, 228 nM for the second.

Compared with UCUCUUCAUAUAUUAUUAUCUCUCUU (ssRNA) [Id_ii_S1_P5E.3_K5.2_C5.2_[T-1A]_H5.2_A5.1_F5.1_T5.2_[A12C]], UCUCUUGCACACUUAUUAAUUCUCUU (ssRNA) [Id_ii_S1_P5E.4_K5.3_C5.2_[C-2G]_[T-1C]_H5.3_A5.1_F5.1_T5.2_[T11A]_[A12T]] is 7.6-fold higher in Kd: 180 nM for the first, 1370 nM for the second.

Going from UCUCUUUGUAUUACUGUCUCUU (ssRNA) [Ib_S1_P5E.1_K5.1_C5.1_H5.1_A5.1_F5.1_[T8C]_[A10G]_T5.1] to UCUCUUCAUAUAUUAUUAUUUCUCUU (ssRNA) [Id_ii_S1_P5E.3_K5.2_C5.2_[T-1A]_H5.2_A5.1_F5.1_T5.2_[A12T]], the Kd rises from 71.2 nM to 395 nM (5.5-fold).

Compared with UCUCUUGGACACUUAUUAUAUCUCUU (ssRNA) [Id_ii_S1_P5E.4_K5.3_C5.2_[C-2G]_[T-1G]_H5.3_A5.1_F5.1_T5.2], UCUCUUCUUAUAUUAUUACGUCUCUU (ssRNA) [Id_ii_S1_P5E.3_K5.2_C5.2_H5.2_A5.1_F5.1_T5.2_[T11C]_[A12G]] is lower in Kd: over 2300 nM for the first, 447 nM for the second.

First: UCUCUUCUUAUAUUAUUACAUCUCUU (ssRNA) [Id_ii_S1_P5E.3_K5.2_C5.2_H5.2_A5.1_F5.1_T5.2_[T11C]]
Second: UCUCUUGCACACUUAUUACUUCUCUU (ssRNA) [Id_ii_S1_P5E.4_K5.3_C5.2_[C-2G]_[T-1C]_H5.3_A5.1_F5.1_T5.2_[T11C]_[A12T]]
The Kd of the first is 3.2-fold lower: 471 nM for the first, 1530 nM for the second.

First: UCUCUUCUUAUAUUAUUAAAUCUCUU (ssRNA) [Id_ii_S1_P5E.3_K5.2_C5.2_H5.2_A5.1_F5.1_T5.2_[T11A]]
Second: UCUCUUCUUAUAUUAUUAACUCUCUU (ssRNA) [Id_ii_S1_P5E.3_K5.2_C5.2_H5.2_A5.1_F5.1_T5.2_[T11A]_[A12C]]
The Kd of the first is 1.5-fold higher: 730 nM for the first, 476 nM for the second.

First: UCUCUUGCACACUUAUUAACUCUCUU (ssRNA) [Id_ii_S1_P5E.4_K5.3_C5.2_[C-2G]_[T-1C]_H5.3_A5.1_F5.1_T5.2_[T11A]_[A12C]]
Second: UCUCUUGCACACUUAUUAUCUCUCUU (ssRNA) [Id_ii_S1_P5E.4_K5.3_C5.2_[C-2G]_[T-1C]_H5.3_A5.1_F5.1_T5.2_[A12C]]
The Kd of the first is 1.6-fold higher: 1890 nM for the first, 1160 nM for the second.

First: UCUCUUGGACACUUAUUAACUCUCUU (ssRNA) [Id_ii_S1_P5E.4_K5.3_C5.2_[C-2G]_[T-1G]_H5.3_A5.1_F5.1_T5.2_[T11A]_[A12C]]
Second: UCUCUUGCACACUUAUUACAUCUCUU (ssRNA) [Id_ii_S1_P5E.4_K5.3_C5.2_[C-2G]_[T-1C]_H5.3_A5.1_F5.1_T5.2_[T11C]]
The Kd of the first is higher: over 2300 nM for the first, 1210 nM for the second.

With UCUCUUCUUAUAUUAUUAGCUCUCUU (ssRNA) [Id_ii_S1_P5E.3_K5.2_C5.2_H5.2_A5.1_F5.1_T5.2_[T11G]_[A12C]] the Kd was 122 nM.
